Laboratory results published in US20250215092A1 (ZHEJIANG NANOMAB TECHNOLOGY CENTER, published 2025).
Each block holds one binder with its values, some of them ahead of it.

Legend:
[1] = target: T1, EGFR-D4 (F481-S645, P00533-1 (uniprot)) his tag antigen (human, UniProt P00533 481-645); assay: ELISA: EGFR-D4 his tag antigen coated at 0.5 µg/mL, antibody at 2000, 200, 20, 2 nM, HRP goat anti-human IgG Fc, OD450
T1 construct: range 481-645; also called IV domain protein; EGFR-D4 protein; not shown: His tag
Protocol: (§1) (2) Protein Binding Epitope Analysis: ELISA was used to determine the binding of VHH-IgG4 antibody to each domain of EGFR extracellular protein. Briefly, EGFR his tag protein, and EGFR-V3-his tag antigen protein were diluted to 1 μg/mL, EGFR-D1D2 (L25-A310, P00533-1 (uniprot)), and EGFR-D4 (F481-S645, P00533-1 (uniprot)) his tag antigen were diluted to 0.5 μg/mL, and each well of an ELISA plate was coated with […] antigen and incubated overnight at 4° C. The next day, the plates were washed twice with PBST (added with 0.5% TWEEN-20), then blocked with 3% BSA at 37° C. for 1.5 h, and then washed twice with PBST. Then, the antibody to be tested was diluted to 50 nM, 5 nM, 0.5 nM, 0.05 nM, and added to the wells coated with EGFR his tag protein or EGFR-V3-his tag antigen at 100 µL/well, respectively. The antibody was diluted to 2000 nM, 200 nM, 20 nM, 2 nM, and added to the wells coated with EGFR his tag protein or EGFR-V3-his tag antigen at 100 µL/well, respectively. The ELISA plates were incubated at 37° C. for 1 h. The plates were then washed three times with PBST, and then 100 μL HRP labeled Goat anti human IgG Fc antibody (1:10000, Bethyl) was added into each well, and incubated at 37° C. for another 40 min. After washing the plates four times with PBST, 100 μL of TMB substrate was added to each well, and the reaction was allowed to proceed for 3-5 min. The reaction was stopped by adding 100 μL of 3N hydrochloric acid per well. After stopping the reaction, the optical density at 450/650 nm was measured using a Tecan microplate reader.

[2] = target: T2, EGFR-D1D2 (L25-A310, P00533-1 (uniprot)) his tag antigen (human, UniProt P00533 25-310); assay: ELISA: EGFR-D1D2 his tag antigen coated at 0.5 µg/mL, antibody at 2000, 200, 20, 2 nM, HRP goat anti-human IgG Fc, OD450
T2 construct: range 25-310; also called I+II domain protein; EGFR-D1D2 protein; not shown: His tag
Protocol: as §1

[3] = target: T3, human EGFR.His antigen (Acro, Cat #EGR-H522a) (human, UniProt P00533 25-645); assay: ELISA: EGFR his tag protein coated at 1 µg/mL, antibody at 50, 5, 0.5, 0.05 nM, HRP goat anti-human IgG Fc, OD450
T3 construct: extracellular domain; Bought protein; also called EGFR his tag protein; full-length EGFR extracellular domain protein; not shown: His tag
Protocol: as §1, with “After washing the plates four times with PBST, 100 μL of TMB substrate was added to each well, and the reaction was allowed to proceed for 3-5 min. The reaction was stopped by adding 100 μL of 3N hydrochloric acid per well.” left out

[4] = target: T4, Rhesus macaque EGFR Protein, His Tag (Acro, Cat #EGR-C52H1) (rhesus macaque, UniProt P55245 25-645); assay: ELISA, coated antigen 1 ug/mL, antibody 50 nM
T4 construct: extracellular domain; Bought protein; also called Monkey EGFR; not shown: His tag
Protocol: (§2) ELISA was used to identify the binding of VHH-IgG4 antibodies to the extracellular domains of mouse EGFR, monkey EGFR, and human EGFR proteins. The detection steps were as follows: Mouse EGFR Protein, His Tag (Acro, Cat #EGR-M5224) and Rhesus macaque EGFR Protein, His Tag (Acro, Cat #EGR-C52H1) were diluted to 1 μg/mL with phosphate buffer, and 100 μL of each dilution was added to a 96-well ELISA plate and coated overnight at 4° C. The next day, the plates were washed twice with PBST (containing 0.5% TWEEN-20) and then blocked with 3% BSA at 37° C. for 1.5 h, followed by two washes with PBST. VHH-IgG4 antibodies were diluted to 50 nM, and 100 μL of the dilution was added to each well and incubated at 37° C. for 1 h. The plates were then washed three times with PBST, and 100 μL of HRP-labeled goat anti-human IgG Fc antibody (1:10000, Bethyl) was added to each well and incubated at 37° C. for another 40 min. After washing the plates four times with PBST, 100 μL of TMB substrate was added to each well, and the reaction was allowed to proceed for 3-5 min. The reaction was stopped by adding 100 μL of 3N hydrochloric acid per well. After stopping the reaction, the optical density at 450/650 nm was measured using a Tecan microplate reader.

[5] = target: T5, Mouse EGFR Protein, His Tag (Acro, Cat #EGR-M5224) (mouse, UniProt Q01279 25-647); assay: ELISA, coated antigen 1 ug/mL, antibody 50 nM
T5 construct: extracellular domain; Bought protein; not shown: His tag
Protocol: as §2

[6] = target: T3, human EGFR.His antigen (Acro, Cat …); assay: SPR, antibody captured on protein A, EGFR.His in flow
Protocol: The binding kinetics and affinity of candidate antibody to human EGFR.His antigen were determined using surface plasmon resonance (SPR). The purified antibody was flowed through the sensor chips pre-immobilized with protein A, and the antibody was captured by protein A. Then five different concentrations of EGFR.His protein were used as the mobile phase, and the binding time and dissociation time were […], respectively. The binding rate (kon), dissociation rate (koff), and equilibrium constant (kD) were analyzed using Biacore Evaluation Software 2.0 (GE). EC225, an antibody that binds to region III of human EGFR, was selected as a positive control (sequence source https.//go.drugbank.com/drugs/DB00002).

[7] = target: T6, EGFR on SKOV3 and Aspc-1 tumor cells (human, UniProt P00533); assay: flow cytometry on SKOV3 tumor cells, anti-human IgG PE, MFI, curve fit; unit from the concentration axis and paragraph 62 [table]
T6 construct: endogenous, on the cell surface; the cell line is named under assay; also called tumor cell EGFR
Protocol: (§3) Two kinds of tumor cells, SKOV3 and Aspc-1, expressing EGFR were respectively plated in 96 well plates, with 3×10⁵ cells per well, and then the tumor cells were incubated with gradient diluted VHH-IgG4 antibody. After incubation on ice for half an hour, anti human IgG PE (Jackson Immuno Research, Code: 109-117-008, Lot:145501) was added for incubation, and then CytoFLEX flow cytometry was used for detection. The EC50 of the antibody was calculated by curve fitting.

[8] = target: T6, EGFR on SKOV3 and Aspc-1 tumor cells; assay: flow cytometry on Aspc-1 tumor cells, anti-human IgG PE, MFI, curve fit; unit from the concentration axis and paragraph 62; no upper plateau within the range shown [table]
Protocol: as §3

[9] = target: T7, Region III of EGFR expressed on HEK293T cells (human, UniProt P00533); assay: flow cytometry on HEK293T cells expressing EGFR region III, anti-human IgG PE, MFI, curve fit; unit from the concentration axis and paragraph 62 [table]
T7 construct: also called HEK293T EGFR-III cells; stably transformed cell line 293T overexpressing EGFR III region protein
Protocol: HEK293T cells that express Region III of EGFR (i.e., HEK293T […] cells) were plated in a 96-well plate with 3×10⁵ cells/well, and then HEK293T […] cells were incubated with gradient diluted VHH-IgG4 antibody. After incubation for half an hour, anti-human IgG PE (Jackson Immuno Research, Code: 109-117-008, Lot:145501) as the secondary antibody for detection was added for incubation, and then CytoFLEX flow cytometer was used for detection. The EC50 of the antibody was calculated by curve fitting with Graphprism8.0 software. Isotype 1 in the figure is a negative control, and its amino acid sequence is shown as SEQ ID NO: 2 in CN106046152A.

[10] = target: T6, EGFR on SKOV3 and Aspc-1 tumor cells; assay: flow cytometry on SKOV3 tumor cells, anti-human IgG PE, MFI, curve fit; unit from the concentration axis and paragraph 62; the curve still rises at the highest concentration (MFI about 9700 at about 250 nM) [table]
Protocol: as §3

[11] = target: T6, EGFR on SKOV3 and Aspc-1 tumor cells; assay: flow cytometry on Aspc-1 tumor cells, anti-human IgG PE, MFI, curve fit; unit from the concentration axis and paragraph 62; the curve still rises at the highest concentration (MFI about 9000 at about 250 nM) [table]
Protocol: as §3

- binding result [1]: no binding (tested: 2000 nM)
- binding result [2]: binds
- binding result [3]: binds
- OD450 [4]: 3.36 OD450
- OD450 [5]: 0.08 OD450
B1: E009 VHH-IgG4 antibody (antibody, V domains shown, not shown: a dimerising Fc or GST)
VH: QVQLVESGGGLVQPGGSLRLSCEASGRIDIIFTMGWYRQTPGNEREFVASVTNYNAKYADSVKGRFTISRENTENTAYLQMNSLKPEDTAIYVCHLNYASDYTEYDYYGQGTQVTVSS

- Kd [6]: 6.82 nM
- koff [6]: 0.000255 s⁻¹
- kon [6]: 37400 M⁻¹ s⁻¹
- EC50 [7]: 11 nM
- EC50 [8]: 12 nM
- binding result [2]: no binding (tested: 2000 nM)
- EC50 [9]: 0.5 nM
- OD450 [4]: 3.3 OD450
- OD450 [5]: 3.13 OD450
B2: E006 VHH-IgG4 antibody (antibody, V domains shown, not shown: a dimerising Fc or GST)
VH: EVQLVESGGGLVQPGGSLRLSCTASGFTFDTYTTSWERQAPGKEREMVAVLATTGGKPYYVESVKGRFTISRDASETAVTLQMNNLKPEDTAVYYCKATSRSPVNPHNYSGQGTLVTVSS

- Kd [6]: 0.206 nM
- koff [6]: 1.2e-05 s⁻¹
- kon [6]: 57900 M⁻¹ s⁻¹
- binding result [2]: no binding (tested: 2000 nM)
- EC50 [10]: 74 nM
- EC50 [11]: 58 nM
- EC50 [9]: 0.32 nM
- OD450 [4]: 3.3 OD450
- OD450 [5]: 0.76 OD450
B3: E001 VHH-IgG4 antibody (antibody, V domains shown, not shown: a dimerising Fc or GST)
VH: EVQLVESGGGLVQPGGSLRLSCTPSGSGFTIQAMTWYRQAPGKQRELVAIIHQGGSTDYSDSVRGRFTISRDNAKTAWYLQMNNLKPEDTAVYYCNVVPPLRVWGQGTQVTVSS
